According to US20130017188A1, “MODULATION OF SGK1 EXPRESSION IN TH17 CELLS TO MODULATE TH17-MEDIATED IMMUNE RESPONSES” (THE BRIGHAM AND WOMEN'S HOSPITAL, INC., priority 2009, published 2013):

What was measured:
[1] = test system: SGK1 expression in naïve CD4+ T cells; assay: SGK1 mRNA expression during T cell / TH17 differentiation; assay type: cell-based
Procedure: Naïve CD4+ T cells were cultured in TH17 differentiating condition (TGF-β plus IL-6) for 96 hours.
The correlation between the SGK1 expression level during T cell differentiation was previously unknown, so SGK1 mRNA level was first measured under different conditions during T cell differentiation (FIG. 1). […] IL-23, an IL-12 family cytokine, is essential for enhancing generation of TH17 cells.
The time dependent expression of SGK1 during TH17 differentiation was further examined by culturing naïve CD4+ T cells under TH17 differentiating conditions (TGF-β plus IL-6) for 96 hours. After 48 hours, TH17 cells were supplemented with IL-23 until the end of the culture period.

TH17 cells = assay: IL-23 dependent expansion of differentiated TH17 cells, intracellular cytokine staining for IL-17; assay type: cell-based, mice
Procedure: Naïve CD4+ T cells were sorted from wild-type and SGK1-deficient mice and cultured under TH17 differentiation conditions. After a first round of stimulation, the cells were rested for two days in cytokine free medium. Two days later, cells were activated in the presence or absence of IL-23, and intracellular cytokine staining was performed for IL-17.
(§1) It has been shown that exposure of IL-23 is essential for expanding and stabilizing TH17 cells. […] It was next tested whether SGK1 is essential for IL-23-dependent expansion of TH17 cells. Naïve CD4+ T cells were sorted from wild-type and SGK1-deficient mice and were cultured under TH17 differentiation conditions, as described herein. After a first round of stimulation, cells were rested for two days in a cytokine-free medium. Two days later, cells were activated in the presence or absence of IL-23, and intracellular cytokine staining was performed for IL-17 expression. […] It was further tested whether IL-23 can expand sorted memory TH17 cells. Both wild-type and SGK1-deficient CD4^+CD62L^− cells were sorted and cultured with either anti-CD3 alone or anti-CD3 plus IL-23.

[2] = test system: CD4+CD62L- cells (memory CD4 cells); assay: IL-17A and IL-17F expression in sorted memory CD4+CD62L- cells; assay type: cell-based, mice; conditions: anti-CD3 plus IL-23 vs anti-CD3 alone (FIG. 5)
Procedure: Wild-type and SGK1-deficient CD4+CD62L-cells (memory CD4 cells) were sorted and cultured with either anti-CD3 alone or anti-CD3 plus IL-23.
as §1

Molecule: IL-6: STAT3-activating cytokine used with TGF-β for TH17 differentiation
- expression of SGK1 (mRNA) ([1]; IL-6 added together with TGF-β (FIG. 1)): further increased the expression SGK1

Molecule: TGF-β
- expression level of SGK1 (mRNA) ([1]; T cell differentiation, TGF-β (FIG. 1)): upregulate the expression level of SGK1

B1: IL-23: an IL-12 family cytokine, essential for enhancing generation of TH17 cells (protein, UniProt Q9NPF7 20-189; P29460 23-328, looked up)
Interleukin-23 subunit alpha: RAVPGGSSPAWTQCQQLSQKLCTLAWSAHPLVGHMDLREEGDEETTNDVPHIQCGDGCDPQGLRDNSQFCLQRIHQGLIFYEKLLGSDIFTGEPSLLPDSPVGQLHASLLGLSQLLQPEGHHWETQQIPSLSPSQPWQRLLLRFKILRSLQAFVAVAARVFAHGAATLSP
Interleukin-12 subunit beta: IWELKKDVYVVELDWYPDAPGEMVVLTCDTPEEDGITWTLDQSSEVLGSGKTLTIQVKEFGDAGQYTCHKGGEVLSHSLLLLHKKEDGIWSTDILKDQKEPKNKTFLRCEAKNYSGRFTCWWLTTISTDLTFSVKSSRGSSDPQGVTCGAATLSAERVRGDNKEYEYSVECQEDSACPAAEESLPIEVMVDAVHKLKYENYTSSFFIRDIIKPDPPKNLQLKPLKNSRQVEVSWEYPDTWSTPHSYFSLTFCVQVQGKSKREKKDRVFTDKTSATVICRKNASISVRAQDRYYSSSWSEWASVPCS
- IL-17 expressing TH17 cells after re-activation with IL-23 (TH17 cells; SGK1-deficient TH17 cells, ~4% in absence of IL-23): ~1%
- IL-17 expressing TH17 cells after re-activation with IL-23 (TH17 cells; wild-type TH17 cells, 11.5% in absence of IL-23): 13%
- expression of SGK1 (mRNA) ([1]; IL-23, further to TGF-β and IL-6 (FIG. 1)): further enhances the expression of SGK1
- time dependent expression of SGK1 ([1]; TH17 cells supplemented with IL-23 after 48 hours (FIG. 2)): further induced SGK1 expression
- expression of IL-17A and IL-17F ([2]; SGK1-deficient memory cells): defective in inducing expression of IL-17A and IL-17F
- expression of IL-17A and IL-17F ([2]; wild-type memory cells): clearly enhanced the expression of IL-17A and IL-17F
